In PMC3631189:
Values belong to the substance of their own block, whether it stands above or below them.

Legend:
Experiment in all cases: SEC; gel permeation chromatography on Superdex-200, purified receptors-Fc loaded in 400 µl, eluted in PBS, absorbance at 280 nm
atacicept = target: atacicept
hFn14-Fc (human) = hFn14-Fc (human) (UniProt Q9NP84)
hTACI-Fc = target: hTACI-Fc

stoichiometry N (atacicept): 2
Substance: atacicept (Fc fusion)

stoichiometry N (hFn14-Fc (human)): 2
Substance: hFn14-Fc (from UniProt Q9NP84 28-80) (Fc fusion)

stoichiometry N (hTACI-Fc): 2
Substance: hTACI-Fc (Fc fusion)
